This is an account of results in patent US20220136027.

This series deals with T1, pentapeptide Gln-Pro-Gln-Gln-Pro.
T1 chain: QPQQP

B1: FvePro4 (protein)
chain: ASRLSSRRWASSENMTKLDTTSRLNRLRGLMKERNVQIYIVPSEDSHSSEYIADCDARRAYISGFTGSAGCAVVTLESAALATDGRYFNQATSQLDSNWTLLKQGLQDVPTWQDWSAEQSSGGKNVGVDPTLISGSTAKNLAEKIRKNGGAELLPVDGNLVDLVWGDERPSRPSEQVIIQPDELAGESVLNKLTKVRQELEKKHSPGFLVSMLDEIAWLFNLRGNDIPYNPVFFAYATVTPDAAKLYIDEAKLDDKCRSHLTSNKVDIKPYETIFDDAQALHAAHAAKSKSGDKVPTGNFLISNKGSWALKRALGGDSSVDEIRSLIGDAKAIKTEAELKGMRDCHVRDGAALIQYFAWLEDQLVNKKATLDEVQAADKLEELRKVKKDFVGLSFPTISSTGANAAIIHYGPERGNCATIDPEAIYLCDSGAQYRDGTTDTTRTLHFGKPTEAEREAYTLVLKGHISLDQAIFPKGTTGFALDSLARQHLWKNGLDYRHGTGHGVGSFLNVHEGPIGIGTRVQYAEVALAPGNVLSNEPGYYEDGKYGIRIENMVLVKEVKTKHSFGDKPFLGFEYVTLVPYCRNLIDTTLLTSEEKEWLNTYNAKVLEKTQEYFEGDDVTLAWLKRETQHVE
On to B1, for which the “pentapeptide hydrolysis (ninhydrin reaction, A570)” value was “all purified proteases are capable of hydrolyzing pentapeptide Gln-Pro-Gln-Gln-Pro”.
